# Assay results taken from the supplement of paper PMC9170038.
# System: MS2 coat protein
# Assay: apparent KD of MS2 coat protein; designed switch direction (-1 OFF switch, 1 ON switch): 1; higher = weaker reporter binding
# How it was run: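 On Illumina chips, designed RNA switches with common flanks were made by stalled E. coli RNA polymerase. Titrations with SNAP-549-labelled MS2 coat protein, doubling from 0.7 or 1.5 nM to 3 µM, were done with no input, with 200 uM small-molecule ligand, or with an oligonucleotide input. Apparent KD is the median per design over clusters, from curve fits of normalised cluster fluorescence.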
# [1] = Eterna round: R95, input ligand: FMN 200 uM
# [2] = Eterna round: R95, input ligand: microRNA oligo, concentration not stated
# [3] = Eterna round: R95, input ligand: none
# [4] = input ligand: microRNA oligo, concentration not stated
sequence,measurement,setting,value
AUAAAACAUGAGGAUCACCCAUGUCAACAAAGUCGAGGAUAUGGGCAAAGAAAAUAAGAACCAGAAGGCGAAUAAU [salish99_ss1_r3_056] (puzzle: Same State 1),apparent KD of MS2 coat protein,[1],0.0362 µM
same,apparent KD of MS2 coat protein,[2],0.319 µM
same,apparent KD of MS2 coat protein,[3],0.489 µM
AUAAAACAUGAGGAUCACCCAUGUCAACAAAGUCGAGGAUAUGGGCAAAUAAAAUAAGAACCAGAAGGCGAAUAAG [salish99_SS1_r3_004] (puzzle: Same State 1),apparent KD of MS2 coat protein,[1],0.0307 µM
same,apparent KD of MS2 coat protein,[2],0.088 µM
same,apparent KD of MS2 coat protein,[3],0.266 µM
AUAAAACAUGAGGAUCACCCAUGUCAACAAAGUCGAGGAUAUGGGCAAAUAAUAUAAGAACCAGAAGGCGAAUAAU [salish99_ss1_r3_022] (puzzle: Same State 1),apparent KD of MS2 coat protein,[1],0.0366 µM
same,apparent KD of MS2 coat protein,[2],0.207 µM
same,apparent KD of MS2 coat protein,[3],0.191 µM
AUAAGUCCGAUGCUCGUCUCUCCGUACAAACAUGAGGAUCACCCAUGUGAUCGGGCAGUAGCCCGAUCAGUAUGGCC [Raedre] (puzzle: Sensor for hsa-mir-208a),apparent KD of MS2 coat protein,[1],0.0515 µM
same,apparent KD of MS2 coat protein,[2],0.0239 µM
same,apparent KD of MS2 coat protein,[3],0.0564 µM
"AUACAUGAGGAUCACCCAUGUAAUUAAUUAAUUAAUAAGAUCAAGGAUAUCAGCUCGAAUAGAGCUGAGAAGGUGAUCACAUGU [SSNG3/21-D1] (Eterna round: R96, puzzle: Same State NG 3)",apparent KD of MS2 coat protein,[4],0.177 µM
"AUACAUGAGGAUCACCCAUGUAAUUAAUUAAUUAAUAAGAUCAAGGAUAUCAGCUCGAUUAGAGCUGAGAAGGUGAUCACAUGU [SSNG3/21-D2] (Eterna round: R96, puzzle: Same State NG 3)",apparent KD of MS2 coat protein,[4],0.272 µM
"AUAGUUGCCGAAGGAUAUGAUGAGGAUCACCCAUCAGAAGGUUGGCUAUUGGGUGGACAUGAGGAUCACCCAUGUCCUUUGGUU (Eterna round: R96, puzzle: Same State NG 1)",apparent KD of MS2 coat protein,input ligand: FMN 200 uM,0.0582 µM
same,apparent KD of MS2 coat protein,[4],0.0689 µM
same,apparent KD of MS2 coat protein,input ligand: none,0.113 µM
"AUAGUUUCCGAAGGAUAUGAUGAGGAUCACCCAUCAGAAGGUUGGCUAUUGGGCGGACAUGAGGAUCACCCAUGUCUUUCGGUU (Eterna round: R96, puzzle: Same State NG 1)",apparent KD of MS2 coat protein,input ligand: FMN 200 uM,0.0847 µM
same,apparent KD of MS2 coat protein,[4],0.0768 µM
same,apparent KD of MS2 coat protein,input ligand: none,0.101 µM
"AUAGUUUCCGAAGGAUAUGAUGAGGAUCACCCAUCAGAAGGUUGGCUAUUGGGCUGACAUGAGGAUCACCCAUGUUCUGGAGUU (Eterna round: R96, puzzle: Same State NG 1)",apparent KD of MS2 coat protein,input ligand: FMN 200 uM,0.0398 µM
same,apparent KD of MS2 coat protein,[4],0.0395 µM
same,apparent KD of MS2 coat protein,input ligand: none,0.0645 µM
AUCAAAACAAGUUGCAGUGUUCGUCUUUCACAUGAGGAUCACCCAUGUAAUAGCCCAGUGGAAGCGCUCAGGCCACC [Usbi] (puzzle: Sensor for hsa-mir-208a),apparent KD of MS2 coat protein,[1],0.225 µM
same,apparent KD of MS2 coat protein,[2],0.0577 µM
same,apparent KD of MS2 coat protein,[3],0.21 µM
AUCCUACAUGAGGAUCACCCAUGUGACGCCUCGAUAGGAUAUGCGUGUGCCUUGGCGCAUGCAGAAGGAUUGGAGC [JL Aveso mod 5] (puzzle: Same State 1),apparent KD of MS2 coat protein,[1],0.0884 µM
same,apparent KD of MS2 coat protein,[2],0.0726 µM
same,apparent KD of MS2 coat protein,[3],0.0785 µM
"AUGAAGAAUUAAGGAUAUUGAAUACAUAUGUUUAACAUGAGGAUCACCCAUGUGGGUUGCGGUAUCGAGAAGGUAAAUUAAUAG [Mat - same State NG 2 - JL mod - D90] (Eterna round: R96, puzzle: Same State NG 2)",apparent KD of MS2 coat protein,input ligand: FMN 200 uM,0.142 µM
same,apparent KD of MS2 coat protein,[4],0.156 µM
same,apparent KD of MS2 coat protein,input ligand: none,0.143 µM
"AUGAAUUUGCGAGGAUAUCGUUUGUUGAAGUUACGAGAAGGCGCUCACUUUACAUGAGGAUCACCCAUGUUUAUGUUUUAUGAU [JR_SSNG1_Sub075] (Eterna round: R96, puzzle: Same State NG 1)",apparent KD of MS2 coat protein,input ligand: FMN 200 uM,0.022 µM
same,apparent KD of MS2 coat protein,[4],0.0216 µM
same,apparent KD of MS2 coat protein,input ligand: none,0.0311 µM
"AUGAUUUAUGCAGGAUAUGAUUAACAUGAGGAUCACCCAUGUGGUGUUGUGAGUAAGGAGAGUGAUCAGAAGGGCAUUUUUUUU [JMF's solution 71] (Eterna round: R96, puzzle: Same State NG 2)",apparent KD of MS2 coat protein,input ligand: FMN 200 uM,1.17 µM
same,apparent KD of MS2 coat protein,[4],0.402 µM
same,apparent KD of MS2 coat protein,input ligand: none,0.506 µM
"AUGCCAAAUCGAGGAUAUGGAGCCUUAUUGGCUCCAGAAGGUGAGACAUGAGGAUCACCCAUGUGGCAGUGGUCUAAUGACCAC [Fiskers NG1ss - 32] (Eterna round: R96, puzzle: Same State NG 1)",apparent KD of MS2 coat protein,input ligand: FMN 200 uM,0.174 µM
same,apparent KD of MS2 coat protein,[4],0.27 µM
same,apparent KD of MS2 coat protein,input ligand: none,0.581 µM
AUUAAACAUGAGGAUCACCCAUGUCAACAAAGUCGAGGAUAUGGGCAAAUAAAAUAAGAACCAGAAGGCGAAUUAU [salish99_ss1_r3_079] (puzzle: Same State 1),apparent KD of MS2 coat protein,[1],0.0326 µM
same,apparent KD of MS2 coat protein,[2],0.337 µM
same,apparent KD of MS2 coat protein,[3],0.312 µM
AUUAAACAUGAGGAUCACCCAUGUCAACAAAGUCGAGGAUAUGGGCAAAUAUUAUAAUAACCAGAAGGCGAAUAAU [salish99_ss1_r3_082] (puzzle: Same State 1),apparent KD of MS2 coat protein,[1],0.0274 µM
same,apparent KD of MS2 coat protein,[2],0.212 µM
same,apparent KD of MS2 coat protein,[3],0.149 µM
"AUUAAUAAUCGAGGAUAUCACGUCGAUUAGACGUGAGAAGGCGAUCAUAACAUGAGGAUCACCCAUGUAUUACAUGAAGUUAAU [SSNG1/4-B2] (Eterna round: R96, puzzle: Same State NG 1)",apparent KD of MS2 coat protein,input ligand: FMN 200 uM,0.0253 µM
same,apparent KD of MS2 coat protein,[4],0.0237 µM
same,apparent KD of MS2 coat protein,input ligand: none,0.0282 µM
"AUUAUUAAUGCAGGAUAUGAUUAACAUGAGGAUCACCCAUGUGGUGUUGUGAGUAAGGAGAGUGAUCAGAAGGGCAUUUUUGUU [JMF's solution 14] (Eterna round: R96, puzzle: Same State NG 2)",apparent KD of MS2 coat protein,input ligand: FMN 200 uM,0.811 µM
same,apparent KD of MS2 coat protein,[4],0.33 µM
same,apparent KD of MS2 coat protein,input ligand: none,0.629 µM
"AUUAUUAAUGCAGGAUAUGAUUAACAUGAGGAUCACCCAUGUGGUGUUGUGAGUAAGGAGAGUGAUCAGAAGGGCAUUUUUUUG [JMF's solution 19] (Eterna round: R96, puzzle: Same State NG 2)",apparent KD of MS2 coat protein,input ligand: FMN 200 uM,0.42 µM
same,apparent KD of MS2 coat protein,[4],0.423 µM
same,apparent KD of MS2 coat protein,input ligand: none,0.452 µM
"AUUCUUAAUGCAGGAUAUGAUUAACAUGAGGAUCACCCAUGUGGUGUUGUGAGUAAGGAGAGUGAUCAGAAGGGCAUUUUUUUU [JMF's solution 32] (Eterna round: R96, puzzle: Same State NG 2)",apparent KD of MS2 coat protein,input ligand: FMN 200 uM,0.316 µM
same,apparent KD of MS2 coat protein,[4],0.271 µM
same,apparent KD of MS2 coat protein,input ligand: none,0.21 µM
"AUUGCUUUCGCAGGAUAUGAUGCGAAAAUUGCGUCAGAAGGGUGGAGUAUCUCAUUGCAAGAGGACAUGAGGAUCACCCAUGUC [SameState NG1 #87] (Eterna round: R96, puzzle: Same State NG 1)",apparent KD of MS2 coat protein,input ligand: FMN 200 uM,0.0405 µM
same,apparent KD of MS2 coat protein,[4],0.14 µM
same,apparent KD of MS2 coat protein,input ligand: none,0.216 µM
"AUUUUUGAUGCAGGAUAUGAUUAACAUGAGGAUCACCCAUGUGGUGUUGUGAGUAAGGAGAGUGAUCAGAAGGGCAUUUUUUUU [JMF's solution 93] (Eterna round: R96, puzzle: Same State NG 2)",apparent KD of MS2 coat protein,input ligand: FMN 200 uM,0.81 µM
same,apparent KD of MS2 coat protein,[4],0.269 µM
same,apparent KD of MS2 coat protein,input ligand: none,0.365 µM
CAAGCUUGGGUCGUCCCGCUCGUCUUCAAACAUGAGGAUCACCCAUGUAUACUCUUCACAUCAAUUCUAUCUCUUAA [Ralasoerin] (puzzle: Sensor for hsa-mir-208a),apparent KD of MS2 coat protein,[1],0.255 µM
same,apparent KD of MS2 coat protein,[2],0.0228 µM
same,apparent KD of MS2 coat protein,[3],0.289 µM
CAAGUACAUGAGGAUCACCCAUGUGGAAGAGAUGCAGGAUAUGUGGGAGAAGGGAGUGUAACAGAAGGGCAAGGAG [JR_SS!_Sub019] (puzzle: Same State 1),apparent KD of MS2 coat protein,[1],0.113 µM
same,apparent KD of MS2 coat protein,[2],0.0718 µM
same,apparent KD of MS2 coat protein,[3],0.109 µM
CAGCGCUGUCGAGAGGAUAUGCUGUGAUGGACAUGAGGAUCACCCAUGUUAGCGAUAGCAUUACUGUAGAAGGCUCUACAGCUGC [Soteed - 15] (puzzle: Same State 2),apparent KD of MS2 coat protein,[2],0.0109 µM
CAGCGCUGUCGAGAGGAUAUGUGGUGAUGGACAUGAGGAUCACCCAUGUUAGCGACAGUAUCACGGCAGAAGGCUCUACCGCUGC [Soteed Omei mod 31] (puzzle: Same State 2),apparent KD of MS2 coat protein,[1],0.0561 µM
same,apparent KD of MS2 coat protein,[2],0.0381 µM
same,apparent KD of MS2 coat protein,[3],0.044 µM
"CAGUAUCGCGGAGGAUAUGGGCUGAGACCGGAGCAACUCUGGUCAACAUGAGGAUCACCCAUGUCCCAGAAGGCCGCGAUGCUG [Enquoninso] (Eterna round: R96, puzzle: Same State NG 2)",apparent KD of MS2 coat protein,input ligand: FMN 200 uM,0.0184 µM
same,apparent KD of MS2 coat protein,[4],0.0622 µM
same,apparent KD of MS2 coat protein,input ligand: none,0.0961 µM
"CAUCCCUCCACAGGAUAUCGACCAAUAAAACGGCGAGAAGGGUGGCCACAUGAGGAUCACCCAUGUGGAAUUGGAUGAACUACC [Atusmaceor] (Eterna round: R96, puzzle: Same State NG 1)",apparent KD of MS2 coat protein,input ligand: FMN 200 uM,0.141 µM
same,apparent KD of MS2 coat protein,[4],0.12 µM
same,apparent KD of MS2 coat protein,input ligand: none,0.077 µM
